{"source": "paper PMC12823420", "about": "(Nature, 2024)", "binders": {"B1": {"name": "10×His-SUMO-3V5-tagged SARNP UCM-1 (residues 82-115) (peptide)", "chain": "VDVAAEKKVVKITSEIPQTERMQKRAERFNVPVS", "notes": "also called Sumo-V5–UCM-1; SUMO-V5-3C–UCM; source: E. coli BL21 DE3 RIL, purified (HisTrap, HiTrapQ, Superdex 75)"}, "B2": {"name": "MBP-tagged ALYREF^C (residues 106–257) (domain or fragment)", "chain": "not shown", "notes": "also called ALYREF harbouring only a C-UBM"}, "B3": {"name": "MBP-tagged ALYREF^N (residues 1–182) (domain or fragment)", "chain": "not shown", "notes": "also called ALYREF construct harbouring only an N-UBM"}, "B4": {"name": "SARNP-6×His (full-length SARNP) (natural protein, human, UniProt P82979 1-210, looked up)", "chain": "MATETVELHKLKLAELKQECLARGLETKGIKQDLIHRLQAYLEEHAEEEANEEDVLGDETEEEETKPIELPVKEEEPPEKTVDVAAEKKVVKITSEIPQTERMQKRAERFNVPVSLESKKAARAARFGISSVPTKGLSSDNKPMVNLDKLKERAQRFGLNVSSISRKSEDDEKLKKRKERFGIVTSSAGTGTTEDTEAKKRKRAERFGIA", "notes": "SARNP, human; also called CIP29; recombinant full length SARNP; source: E. coli BL21 DE3 RIL, purified (HisTrap, HiTrapQ, Superdex 200)"}, "B5": {"name": "MBP-SARNP^47–210-3C-3V5-SUMO-10×His (domain or fragment, human, UniProt P82979 47-210, looked up)", "chain": "EEEANEEDVLGDETEEEETKPIELPVKEEEPPEKTVDVAAEKKVVKITSEIPQTERMQKRAERFNVPVSLESKKAARAARFGISSVPTKGLSSDNKPMVNLDKLKERAQRFGLNVSSISRKSEDDEKLKKRKERFGIVTSSAGTGTTEDTEAKKRKRAERFGIA", "notes": "SARNP, human, residues 47-210; also called MBP-SARNP residues 47-210; SARNP lacking the N-terminal SAP domain; source: E. coli BL21 DE3 RIL, purified; not shown: MBP, N-terminal, kept"}}, "conditions_in_all_cases": "both partners purified", "key": {"UAP56 [1]": {"target": "T1, UAP56 (human, UniProt Q13838 1-428)", "T1 construct": "The methods name 6×His-TwinSTREPII-3C-UAP56 and 10×His-3C-UAP56; also called DDX39B; DDX39", "experiment": "pull-down"}, "UAP56 [2]": {"target": "T1, UAP56", "experiment": "pull-down; MBP-tagged full-length or truncated ALYREF (2.5 µM) on amylose resin with 12.5 µM UAP56, UCM-1, N-UBM or C-UBM or 6 µM full-length SARNP; with or without 1 mM ATP and 200 µM 15 U RNA; Coomassie"}, "UAP56 [3]": {"target": "T1, UAP56", "experiment": "grating-coupled interferometry (GCI); biotinylated UBM or UCM peptides captured on a streptavidin chip; UAP56 injected; 25 mM HEPES pH 7.9, 50 mM KCl, 1 mM MgCl2, 1 mM TCEP, 25 °C; one-to-one model; UCM peptides also with AMP-PNP or AMP-PNP and 15 U RNA"}, "Flag-tagged UAP56": {"target": "T2, Flag-tagged UAP56 (human, UniProt Q13838 1-428)", "T2 construct": "Used in an in vitro pull-down analysed by Coomassie staining", "experiment": "pull-down; Flag-tagged UAP56 (5 µM) on anti-Flag M2 beads with WT or mutant SARNP (20 µM); buffer A2, room temperature 1 h; Coomassie"}}, "note": "Where no end group is shown, it is not given here."}
{"binder": "B1", "values": [{"measurement": "binding result", "setting": "UAP56 [1]", "result": "binds"}]}
{"binder": "B2", "values": [{"measurement": "binding result", "setting": "UAP56 [2]", "result": "binds"}]}
{"binder": "SISRKSEDDEKLKKRKERFGIVTS (also: biotinylated, site not given here)", "note": "[SARNP UCM-4 peptide, biotinylated]", "values": [{"measurement": "Kd", "setting": "UAP56 [3]", "result": "10 to 20", "unit": "µM"}]}
{"binder": "B3", "values": [{"measurement": "binding result", "setting": "UAP56 [2]", "result": "binds"}]}
{"binder": "B4", "values": [{"measurement": "binding result", "setting": "Flag-tagged UAP56", "result": "binds"}]}
{"binder": "B5", "values": [{"measurement": "binding result", "setting": "Flag-tagged UAP56", "result": "binds"}]}
